Test results published in patent publication US20160326219A1, “OPTICALLY ACTIVATED RECEPTORS” (IST AUSTRIA (INSTITUTE OF SCIENCE AND TECHNOLOGY AUSTRIA), priority 2013, published 2016).
Like-named read-outs stand apart in the source and are kept apart here.

Columns and labels:
MAPK pathway = test: Stimulation and detection of MAPK signaling, PathDetect Elk1 luciferase reporter (HEK293 cells); type: cell-based, human; settings: for MAPK pathway activation in response to blue light: HEK293 cells expressing the fusion protein (LOV domain fused to RTK intracellular domain), ~3 μW/mm^2; for MAPK pathway activation in response to red light: HEK293 cells, PCB incubation, ~0.05 μW/mm^2
Experimental: For light stimulation of cells, an incubator (PT2499, ExoTerra/HAGEN, Holm, Germany) was equipped with 300 light emitting diodes (JS-FS505ORGB-W30 with JS-CON-004 controller, Komerci, Ebern, Germany; λmax˜630 nm (red), λmax˜530 nm (green), λmax˜470 nm (blue), bandwidth ˜±5 nm). Light intensity was controlled with an analog dimmer and measured with a digital power meter (PM120VA, Thorlabs, Munich, Germany). Intensities at maximal output were 2.3 (red), 2.6 (green) and 3.3 (blue light) W/m^2. For stimulation over extended time periods (>8 h), an aluminium box was equipped with the same light-emitting diodes and controller and placed in an incubator with standard tissue culture conditions (see below).
HEK293 cells and CHO-K1 (American Type Culture Collection (ATCC), Manassas, Va.) cells were maintained in DMEM supplemented with 10% FBS, 100 U/ml penicilin and 0.1 mg/ml streptomycin in a humidified incubator with 5% CO2 atmosphere. After trypsination, 5×10^4 cells were seeded in each well of 96-well plates (three to four wells for each construct) coated with poly-L-ornithine (Sigma, Vienna, Austria). Either transparent plates or black clear bottom plates were used. Cells were transfected using Lipofectamine 2000 (Invitrogen/LifeTech).
Phycocyanobilin (PCB; Livchem Logistics GmbH, Frankfurt a.M., Germany) was dissolved in a dark room to a stock concentration of 10 mM in DMSO. Aliquots were stored in the dark at −20° C. Prior to experiments, cells were incubated with 50 μM PCB overnight in reduced serum starve medium at 37° C. PCB could also be applied to applied to living animals as it is non-toxic even in high doses (0.17% of diet or 10 mg/kg) (McCarty (2007).
Activation of the MAPK pathway was assayed with the PathDetect Elk1 trans-Reporting System (Agilent) consisting of an Elk1 phosphorylation-dependent trans-activator and a luciferase-based trans-reporter. Cells were transfected with 213.3 ng total DNA per well (receptor, trans-activator and trans-reporter at ratio of 1:3:60 or 1:30:600) using Lipofectamine 2000. Six h after transfection medium was replaced with CO2-independent reduced serum starve medium (Gibco/Life Technologies; supplemented with 0.5% FBS, 2 mM L-Glutamine, 100 U/ml penicilin and 0.1 mg/ml streptomycin) for 18 h at 37° C. Cells were transferred and were either kept under constant illumination for 8 h or were protected from light. Chemical stimulation of imFGFR1 followed the same procedure, except that 10 nM AP20187 ((Clackson 1998); ARIAD Pharmaceuticals, Cambridge, Mass.) were added before transfer to the stimulation incubator. After incubation, plates were washed once with PBS and luciferase was detected with standard, off-the-shelf reagents. These were either Luciferase 1000 Assay System (Promega, Mannheim, Germany) in combination with a microplate reader equipped with an injector (Tecan Infinite 200 Pro, Maennedorf, Switzerland), or ONE-Glo Assay System (Promega) in combination with a microplate reader not equipped with an injector (BioTek Synergy H1). These assay systems provide equivalent results.

LOV domains = settings: cited from earlier work

Molecule: imFGFR1: chemically-inducible mFGFR1 lacking ligand-binding modules, with a single FKBP domain, SEQ ID NO: 56 [reference compound]
- MAPK pathway activation in response to blue light (MAPK pathway): no effect

Molecule: rtrkB-SyCP1-PHY: chimeric receptor of rat trkB catalytic domain and SyCP1-PHY, SEQ ID NO: 67
- MAPK pathway activation in response to red light (MAPK pathway): activate the canonical MAPK pathway

B1: Opto-hRET: fusion of human RET catalytic domain and VfAU1-LOV, SEQ ID NO: 60 (protein)
chain: MGSSKSKPKDPSQRLDVTGHCYHKFAHKPPISSAEMTFRRPAQAFPVSYSSSSARRPSLDSMENQVSVDAFKILEDPKWEFPRKNLVLGKTLGEGEFGKVVKATAFHLKGRAGYTTVAVKMLKENASPSELRDLLSEFNVLKQVNHPHVIKLYGACSQDGPLLLIVEYAKYGSLRGFLRESRKVGPGYLGSGGSRNSSSLDHPDERALTMGDLISFAWQISQGMQYLAEMKLVHRDLAARNILVAEGRKMKISDFGLSRDVYEEDSYVKRSQGRIPVKWMAIESLFDHIYTTQSDVWSFGVLLWEIVTLGGNPYPGIPPERLFNLLKTGHRMERPDNCSEEMYRLMLQCWKQEPDKRPVFADISKDLEKMMVKRRDYLDLAASTPSDSLIYDDGLSEEETPLVDCNNAPLPRALPSTWIENKLYGRISHAFTRFTGGPDYSLVKALQMAQQNFVITDASLPDNPIVYASRGFLTLTGYSLDQILGRNCRFLQGPETDPRAVDKIRNAITKGVDTSVCLLNYRQDGTTFWNLFFVAGLRDSKGNIVNYVGVQSKVSEDYAKLLVNEQNIEYKGVRTSNMLRRKPGGSGVDYPYDVPDYALD
modifications: hRET-VfAU1-LOV
- MAPK pathway activation in response to blue light (MAPK pathway): robust activation

B2: NgPA1-LOV: LOV domain of N. gaditana hypothetical protein NGA_0015702, residue 87 to 228 of K8Z861, SEQ ID NO: 12 (protein, listed as Nannochloropsis gaditana)
chain: PDYTLVKALQTAQQNFVITDPTLPDNPIVYASGGFLSLTGYQMDQILGRNCRFLQGPDTDPAAVDKIRRAIEDGTDGSVCLLNYRADGSTFWNQFFIAALRGADGNIVNYVGVQCKVSEEYASEVLKKEATSSTVAEASSKR
- MAPK pathway activation in response to blue light (MAPK pathway): blue light-induced activation of MAPK signaling with amplitudes similar to that of the original Opto-mFGFR1
- Blue light intensity at which activation is already achieved (MAPK pathway): 0.25 mW/cm^2

B3: SyCP1-PHY: PHY domain of Synechocystis PCC6803 CPH1, residue 2 to 514 of Q55168, SEQ ID NO: 64 (protein)
chain: ATTVQLSDQSLRQLETLAIHTAHLIQPHGLVVVLQEPDLTISQISANCTGILGRSPEDLLGRTLGEVFDSFQIDPIQSRLTAGQISSLNPSKLWARVMGDDFVIFDGVFHRNSDGLLVCELEPAYTSDNLPFLGFYHMANAALNRLRQQANLRDFYDVIVEEVRRMTGFDRVMLYRFDENNHGDVIAEDKRDDMEPYLGLHYPESDIPQPARRLFIHNPIRVIPDVYGVAVPLTPAVNPSTNRAVDLTESILRSAYHCHLTYLKNMGVGASLTISLIKDGHLWGLIACHHQTPKVIPFELRKACEFFGRVVFSNISAQEDTETFDYRVQLAEHEAVLLDKMTTAADFVEGLTNHPDRLLGLTGSQGAAICFGEKLILVGETPDEKAVQYLLQWLENREVQDVFFTSSLSQIYPDAVNFKSVASGLLAIPIARHNFLLWFRPEVLQTVNWGGDPNHAYEATQEDGKIELHPRQSFDLWKEIVRLQSLPWQSVEIQSALALKKAIVNLILRQAEE
modifications: Synechocystis PCC6803
- Red light intensity at which activation is already achieved (MAPK pathway; red light): 5.8 μW/cm^2
- Red light intensity at which activation is already achieved, converted (MAPK pathway; red light, conversion of 5.8 μW/cm^2): 0.0058 mW/cm^2

B4: NcVV-LOV: LOV domain of N. crassa vivid, residue 37 to 186 with Y50W mutation of Q9C3Y6, SEQ ID NO: 8 (protein, listed as Neurospora crassa)
chain: HTLYAPGGYDIMGWLIQIMNRPNPQVELGPVDTSCALILCDLKQKDTPIVYASEAFLYMTGYSNAEVLGRNCRFLQSPDGMVKPKSTRKYVDSNTINTMRKAIDRNAEVQVEVVNFKKNGQRFVNFLTMIPVRDETGEYRYSMGFQCETE
- Kd (LOV domains; dark state, read-out: Estimated KD, Dark): < 5000 nM
- Kd (LOV domains; light state, read-out: Estimated KD, Light): < 500 nM

B5: OdPA1-LOV: LOV domain of O. danica aureochrome1-like protein, residue 180 to 312 of C5NSW6, SEQ ID NO: 14 (protein, listed as Ochromonas danica)
chain: PDYSLVKALQTAQQNFVISDPSIPDNPIVYASQGFLTLTGYALSEVLGRNCRFLQGPETDPKAVEKVRKGLERGEDTTVVLLNYRKDGSTFWNQLFIAALRDGEGNVVNYLGVQCKVSEDYAKAFLKNEENEK
- MAPK pathway activation in response to blue light (MAPK pathway): blue light-induced activation of MAPK signaling with amplitudes similar to that of the original Opto-mFGFR1
- Blue light intensity at which activation is already achieved (MAPK pathway): 0.25 mW/cm^2

B6: Opto-mFGFR1-R195E: Opto-mFGFR1 with charge inversion mutation R195E that prevents kinase domain dimer formation (protein)
chain: MGSSKSKPKDPSQRLDMKSGTKKSDFHSQMAVHKLAKSIPLRRQVTVSADSSASMNSGVLLVRPSRLSSSGTPMLAGVSEYELPEDPRWELPRDRLVLGKPLGEGCFGQVVLAEAIGLDKDKPNRVTKVAVKMLKSDATEKDLSDLISEMEMMKMIGKHKNIINLLGACTQDGPLYVIVEYASKGNLREYLQAREPPGLEYCYNPSHNPEEQLSSKDLVSCAYQVARGMEYLASKKCIHRDLAARNVLVTEDNVMKIADFGLARDIHHIDYYKKTTNGRLPVKWMAPEALFDRIYTHQSDVWSFGVLLWEIFTLGGSPYPGVPVEELFKLLKEGHRMDKPSNCTNELYMMMRDCWHAVPSQRPTFKQLVEDLDRIVALTSNQEYLDLSIPLDQYSPSFPDTRSSTCSSGEDSVFSHEPLPEEPCLPRHPTQLANSGLKRRVETGPDYSLVKALQMAQQNFVITDASLPDNPIVYASRGFLTLTGYSLDQILGRNCRFLQGPETDPRAVDKIRNAITKGVDTSVCLLNYRQDGTTFWNLFFVAGLRDSKGNIVNYVGVQSKVSEDYAKLLVNEQNIEYKGVRTSNMLRRKTGGSGVDYPYDVPDYALD
- MAPK pathway activation in response to blue light (MAPK pathway): no MAPK pathway activation

B7: mFGFR1-SyCP1-PHY: chimeric receptor of mFGFR1 catalytic domain and SyCP1-PHY, SEQ ID NO: 66 (protein)
chain: MGSSKSKPKDPSQRLDMKSGTKKSDFHSQMAVHKLAKSIPLRRQVTVSADSSASMNSGVLLVRPSRLSSSGTPMLAGVSEYELPEDPRWELPRDRLVLGKPLGEGCFGQVVLAEAIGLDKDKPNRVTKVAVKMLKSDATEKDLSDLISEMEMMKMIGKHKNIINLLGACTQDGPLYVIVEYASKGNLREYLQARRPPGLEYCYNPSHNPEEQLSSKDLVSCAYQVARGMEYLASKKCIHRDLAARNVLVTEDNVMKIADFGLARDIHHIDYYKKTTNGRLPVKWMAPEALFDRIYTHQSDVWSFGVLLWEIFTLGGSPYPGVPVEELFKLLKEGHRMDKPSNCTNELYMMMRDCWHAVPSQRPTFKQLVEDLDRIVALTSNQEYLDLSIPLDQYSPSFPDTRSSTCSSGEDSVFSHEPLPEEPCLPRHPTQLANSGLKRRVETGATTVQLSDQSLRQLETLAIHTAHLIQPHGLVVVLQEPDLTISQISANCTGILGRSPEDLLGRTLGEVFDSFQIDPIQSRLTAGQISSLNPSKLWARVMGDDFVIFDGVFHRNSDGLLVCELEPAYTSDNLPFLGFYHMANAALNRLRQQANLRDFYDVIVEEVRRMTGFDRVMLYRFDENNHGDVIAEDKRDDMEPYLGLHYPESDIPQPARRLFIHNPIRVIPDVYGVAVPLTPAVNPSTNRAVDLTESILRSAYHCHLTYLKNMGVGASLTISLIKDGHLWGLIACHHQTPKVIPFELRKACEFFGRVVFSNISAQEDTETFDYRVQLAEHEAVLLDKMTTAADFVEGLTNHPDRLLGLTGSQGAAICFGEKLILVGETPDEKAVQYLLQWLENREVQDVFFTSSLSQIYPDAVNFKSVASGLLAIPIARHNFLLWFRPEVLQTVNWGGDPNHAYEATQEDGKIELHPRQSFDLWKEIVRLQSLPWQSVEIQSALALKKAIVNLILRQAEETGGSGVDYPYDVPDYALD
modifications: redOpto-mFGFR1
- MAPK pathway activation in response to red light (MAPK pathway): activate the canonical MAPK pathway
